# Experimental data: patent US9802997B2, “Peptides and combination of peptides for use in immunotherapy against various tumors” (immatics biotechnologies GmbH, priority 2015, dated 2017)
# Target: HLA-A*02:01 (Homo sapiens, UniProt P04439, D140Y/D185E/D98H/E176V/E277Q/G131W/G231S/I119V/I121R/I166T/I218V/L300P/L318F/N151K/N90K/P208A/P217A/Q86G/Q94H/R138H/R169H/T345S)
# Experiment: MHC binding assay (UV-ligand exchange, beta2m ELISA)
# Details: binding to HLA-A*02:01, β2m ELISA
# Source text: Candidate peptides for T cell based therapies according to the present invention were further tested for their MHC binding capacity (affinity). The individual peptide-MHC complexes were produced by UV-ligand exchange, where a UV-sensitive peptide is cleaved upon UV-irradiation, and exchanged with the peptide of interest as analyzed. Only peptide candidates that can effectively bind and stabilize the peptide-receptive MHC molecules prevent dissociation of the MHC complexes. To determine the yield of the exchange reaction, an ELISA was performed based on the detection of the light chain (β2m) of stabilized MHC complexes. The assay was performed as generally described in Rodenko et al. (Rodenko et al., 2006).
# 96 well MAXISorp plates (NUNC) were coated over night with 2 ug/ml streptavidin in PBS at room temperature, washed 4× and blocked for 1 h at 37° C. in 2% BSA containing blocking buffer. Refolded HLA-A*02:01/MLA-001 monomers served as standards, covering the range of 15-500 ng/ml. Peptide-MHC monomers of the UV-exchange reaction were diluted 100 fold in blocking buffer. Samples were incubated for 1 h at 37° C., washed four times, incubated with 2 ug/ml HRP conjugated anti-β2m for 1 h at 37° C., washed again and detected with TMB solution that is stopped with […]. Absorption was measured at 450 nm. Candidate peptides that show a high exchange yield (preferably higher than 50%, most preferred higher than 75%) are generally preferred for a generation and production of antibodies or fragments thereof, and/or T cell receptors or fragments thereof, as they show sufficient avidity to the MHC molecules and prevent dissociation of the MHC complexes.
row,Substance,"Peptide exchange (MHC class I binding score, peptide exchange yield)"
1,252 (SLMEKNQSL; listed as Homo sapiens) [compound 252],++ (≧20% = ++)
2,142 (LLDAAHASI; listed as Homo sapiens) [compound 142],++ (≧20% = ++)
3,167 (LVVDEGSLVSV; listed as Homo sapiens) [compound 167],+++ (≧50 = +++)
4,58 (HLLGEGAFAQV; listed as Homo sapiens) [compound 58],+++ (≧50 = +++)
5,215 (QIADIVTSV; listed as Homo sapiens) [compound 215],++ (≧20% = ++)
6,261 (GLAALAVHL; listed as Homo sapiens) [compound 261],+++ (≧50 = +++)
7,116 (ALLSSVAEA; listed as Homo sapiens) [compound 116],++ (≧20% = ++)
8,3 (RVIDDSLVVGV; listed as Homo sapiens) [compound 3],+++ (≧50 = +++)
9,184 (ALDSTIAHL; listed as Homo sapiens) [compound 184],++ (≧20% = ++)
10,207 (KLFETVEEL; listed as Homo sapiens) [compound 207],+++ (≧50 = +++)
11,277 (KLQEELNKV; listed as Homo sapiens) [compound 277],+++ (≧50 = +++)
12,92 (RLFEEVLGV; listed as Homo sapiens) [compound 92],++++ (≧75% = ++++)
13,126 (QLREAFEQL; listed as Homo sapiens) [compound 126],+++ (≧50 = +++)
14,21 (YLMDDFSSL; listed as Homo sapiens) [compound 21],+++ (≧50 = +++)
15,133 (FLDGRPLTL; listed as Homo sapiens) [compound 133],++ (≧20% = ++)
16,243 (GLAEFQENV; listed as Homo sapiens) [compound 243],++ (≧20% = ++)
17,216 (ALSTVTPRI; listed as Homo sapiens) [compound 216],++ (≧20% = ++)
18,218 (SLTGANITV; listed as Homo sapiens) [compound 218],+++ (≧50 = +++)
19,241 (KQFEGTVEI; listed as Homo sapiens) [compound 241],+++ (≧50 = +++)
20,79 (TVLEEIGNRV; listed as Homo sapiens) [compound 79],++ (≧20% = ++)
21,72 (VLSTRVTNV; listed as Homo sapiens) [compound 72],++ (≧20% = ++)

row,Substance,"Peptide exchange (MHC class I binding score, peptide exchange yield)"
1,16 (SLADLSLLL; listed as Homo sapiens) [compound 16],+++ (≧50 = +++)
2,266 (FLLDKPQDL; listed as Homo sapiens) [compound 266],++ (≧20% = ++)
3,131 (SLYPHFTLL; listed as Homo sapiens) [compound 131],+++ (≧50 = +++)
4,176 (VQSGLRILL; listed as Homo sapiens) [compound 176],++ (≧20% = ++)
5,25 (LLWGHPRVALA; listed as Homo sapiens) [compound 25],+++ (≧50 = +++)
6,245 (ALLEEEEGV; listed as Homo sapiens) [compound 245],++ (≧20% = ++)
7,61 (ALYPKEITL; listed as Homo sapiens) [compound 61],+++ (≧50 = +++)
8,137 (KLIYKDLVSV; listed as Homo sapiens) [compound 137],++ (≧20% = ++)
9,273 (SLNKQIETV; listed as Homo sapiens) [compound 273],++ (≧20% = ++)
10,93 (RLYGYFHDA; listed as Homo sapiens) [compound 93],++ (≧20% = ++)
11,227 (SEMEELPSV; listed as Homo sapiens) [compound 227],+ (≧10% = +)
12,99 (TLFGIQLTEA; listed as Homo sapiens) [compound 99],+++ (≧50 = +++)
13,259 (GPGIFPPPPPQP; listed as Homo sapiens) [compound 259],+ (≧10% = +)
14,223 (ALHPVQFYL; listed as Homo sapiens) [compound 223],+++ (≧50 = +++)
15,229 (YLYELEHAL; listed as Homo sapiens) [compound 229],++ (≧20% = ++)
16,130 (QLYGSAITL; listed as Homo sapiens) [compound 130],+++ (≧50 = +++)
17,165 (SLLDYEVSI; listed as Homo sapiens) [compound 165],+++ (≧50 = +++)
18,181 (LLWAPTAQA; listed as Homo sapiens) [compound 181],+++ (≧50 = +++)
19,144 (FLISQTPLL; listed as Homo sapiens) [compound 144],+++ (≧50 = +++)
20,247 (NLLIDDKGTIKL; listed as Homo sapiens) [compound 247],++ (≧20% = ++)
21,36 (TVLQELINV; listed as Homo sapiens) [compound 36],+++ (≧50 = +++)

row,Substance,"Peptide exchange (MHC class I binding score, peptide exchange yield)"
1,149 (NMADGQLHQV; listed as Homo sapiens) [compound 149],++ (≧20% = ++)
2,44 (AVFNLVHVV; listed as Homo sapiens) [compound 44],+++ (≧50 = +++)
3,154 (AIIKEIQTV; listed as Homo sapiens) [compound 154],++ (≧20% = ++)
4,285 (MLLDTVQKV; listed as Homo sapiens) [compound 285],+++ (≧50 = +++)
5,59 (ALADGIKSFLL; listed as Homo sapiens) [compound 59],+++ (≧50 = +++)
6,113 (FLFLKEVKV; listed as Homo sapiens) [compound 113],++ (≧20% = ++)
7,160 (TLQEWLTEV; listed as Homo sapiens) [compound 160],+++ (≧50 = +++)
8,76 (FTAEFLEKV; listed as Homo sapiens) [compound 76],+++ (≧50 = +++)
9,100 (ALQSFEFRV; listed as Homo sapiens) [compound 100],+++ (≧50 = +++)
10,214 (ALFETLIQL; listed as Homo sapiens) [compound 214],+++ (≧50 = +++)
11,54 (YLVPGLVAA; listed as Homo sapiens) [compound 54],+++ (≧50 = +++)
12,230 (KLLNMIFSI; listed as Homo sapiens) [compound 230],+++ (≧50 = +++)
13,193 (ALFHMNILL; listed as Homo sapiens) [compound 193],+++ (≧50 = +++)
14,145 (ALEEKLENV; listed as Homo sapiens) [compound 145],+++ (≧50 = +++)
15,87 (KLLSLLEEA; listed as Homo sapiens) [compound 87],+++ (≧50 = +++)
16,67 (FLIENLLAA; listed as Homo sapiens) [compound 67],+++ (≧50 = +++)
17,86 (SLFSNIESV; listed as Homo sapiens) [compound 86],+++ (≧50 = +++)
18,147 (GLLSALENV; listed as Homo sapiens) [compound 147],+++ (≧50 = +++)
19,49 (KLIGNIHGNEV; listed as Homo sapiens) [compound 49],++ (≧20% = ++)
20,84 (FLLEREQLL; listed as Homo sapiens) [compound 84],++++ (≧75% = ++++)
